Among the data in the supplement of paper PMC10567573 are protein stability index values, retold here.

B1: SLC19A2 (parent)
chain: IYPVWTYSYLVLLFPVFLATDYLR
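Further: lentivirally expressed fusions sorted by FACS into six bins by GFP to DsRed ratio, PSI derived from sequencing read proportions per bin multiplied by bin number.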

Variants of B1 are the subject of the series. The series can be described thus: protein stability index of a GFP-peptide fusion (GPS, HEK-293T) (PSI 1-6); higher = more stable. The following applies: c terminus: a fixed tail appended.
In the case of IYPVWTYSYLVLLFPVRLATDYLR, the protein stability index amounted to 2.95.
In the case of IYPVWTYSYLVLLFPVCLATDYLR it was 2.97; in that of IYPVWTYSYLVLLFPVKLATDYLR, 3.78; in that of IYPVWTYSYLVLLFPVSLATDYLR, 2.64.
As for IYPVWTYSYLVLLFPVALATDYLR, the figure is 3.59; as for IYPVWTYSYLVLLFPVWLATDYLR, 2.19.
In the case of IYPVWTYSYLVLLFPVYLATDYLR it was 2.43.
IYPVWTYSYLVLLFPVNLATDYLR: the protein stability index was found to be 3.6.
As for IYPVWTYSYLVLLFPVPLATDYLR, the figure is 4.41.
For the variant IYPVWTYSYLVLLFPVDLATDYLR, the protein stability index worked out at 2.99.
As for IYPVWTYSYLVLLFPVMLATDYLR, the figure is 3.21.
As for IYPVWTYSYLVLLFPVTLATDYLR, the figure is 2.95; as for IYPVWTYSYLVLLFPVGLATDYLR, 2.81.
As for IYPVWTYSYLVLLFPVELATDYLR, the figure is 3.22; as for IYPVWTYSYLVLLFPVHLATDYLR, 3.74; as for IYPVWTYSYLVLLFPVFLDTDYLR, 2.38.
As for IYPVWTYSYLVLLFPVFLKTDYLR, the protein stability index stood at 1.69.
In the case of IYPVWTYSYLVLLFPVFLYTDYLR it was 3.37.
As for IYPVWTYSYLVLLFPVFLTTDYLR, the figure is 1.57; as for IYPVWTYSYLVLLFPVFLHTDYLR, 2.48; as for IYPVWTYSYLVLLFPVFLLTDYLR, 3.29.
In the case of IYPVWTYSYLVLLFPVFLVTDYLR it was 3.34; in that of IYPVWTYSYLVLLFPVFLWTDYLR, 3.92.
Take IYPVWTYSYLVLLFPVFLITDYLR: the protein stability index is 2.47.
In the case of IYPVWTYSYLVLLFPVFLQTDYLR it was 2.78; in that of IYPVWTYSYLVLLFPVFLNTDYLR, 3.19.
As for IYPVWTYSYLVLLFPVFLPTDYLR, the figure is 4.21.
As for IYPVWTYSYLVLLFPVFLFTDYLR, the figure is 3.11; as for IYPVWTYSYLVLLFPVFLSTDYLR, 2.5; as for IYPVWTYSYLVLLFPVFLMTDYLR, 2.59.
Turning to IYPVWTYSYLVLLFPVFLGTDYLR, the protein stability index is 2.6.
As for IYPVWTYSYLVLLFPVFLATDGLR, the figure is 1.66; as for IYPVWTYSYLVLLFPVFLATDTLR, 2.68.
With IYPVWTYSYLVLLFPVFLATDWLR, the protein stability index amounted to 2.78.
In the case of IYPVWTYSYLVLLFPVFLATDSLR it was 3.06; in that of IYPVWTYSYLVLLFPVFLATDELR, 2.71.
As for IYPVWTYSYLVLLFPVFLATDPLR, the figure is 3.49; as for IYPVWTYSYLVLLFPVFLATDQLR, 1.98.
In the case of IYPVWTYSYLVLLFPVFLATDVLR it was 2.6.
As to IYPVWTYSYLVLLFPVFLATDRLR, the protein stability index stood at 1.75.
Turning to IYPVWTYSYLVLLFPVFLATDDLR, the protein stability index was 2.55.
In the case of IYPVWTYSYLVLLFPVFLATDKLR it was 4.23.
As for IYPVWTYSYLVLLFPVFLATDFLR, the figure is 3.76; as for IYPVWTYSYLVLTFPVFLATDYLR, 1.87; as for IYPVWTYSYLVLVFPVFLATDYLR, 3.06.
For the variant IYPVWTYSYLVLPFPVFLATDYLR, the protein stability index is 1.48.
As for IYPVWTYSYLVLSFPVFLATDYLR, the figure is 2.34; as for IYPVWTYSYLVLNFPVFLATDYLR, 2.64; as for IYPVWTYSYLVLWFPVFLATDYLR, 3.58.
On to IYPVWTYSYLVLQFPVFLATDYLR, for which the protein stability index is 4.28.
IYPVWTYSYLVLYFPVFLATDYLR: the protein stability index is 2.87.
With IYPVWTYSYLVLLFPVFLATWYLR, the protein stability index was 2.24.
As for IYPVWTYSYLVLLFPVFLATSYLR, the figure is 2.09; as for IYPVWTYSYLVLLFPVFLATTYLR, 2.75; as for IYPVWTYSYLVLLFPVFLATEYLR, 3.77.
As to IYPVWTYSYLVLLFPVFLATVYLR, the protein stability index came out at 2.38.
As for IYPVWTYSYLVLLFPVFLATYYLR, the figure is 3.42; as for IYPVWTYSYLVLLFPVFLATNYLR, 2.65.
As for IYPVWTYSYLVLLFPVFLATKYLR, the figure is 2.46.
As for IYPVWTYSYLVLLFPVFLATRYLR, the figure is 2.67; as for IYPVWTYSYLVLLFPVFLATCYLR, 2.36.
As for IYPVWTYSYLVLLFPVFLATHYLR, the protein stability index is 3.39.
As for IYPVWTYSYLVLLFPVFLATAYLR, the figure is 3.19; as for IYPVWTYSYLVLLFPVFLATFYLR, 2.61.
As for IYPVWTYSYLVLLFPVFLATGYLR, the figure is 2.73; as for IYPVWTYSYLVLLFPVFLATPYLR, 2.63; as for IYPVWTYSYLVLLFPVFLAADYLR, 2.94.
As for IYPVWTYSYLVLLFPVFLAEDYLR, the figure is 1.62.
In the case of IYPVWTYSYLVLLFPVFLALDYLR, the protein stability index came out at 4.02.
In the case of IYPVWTYSYLVLLFPVFLAFDYLR it was 2.44.
For the variant IYPVWTYSYLVLLFPVFLACDYLR, the protein stability index was found to be 2.53.
In the case of IYPVWTYSYLVLLFPVFLAQDYLR it was 3.01; in that of IYPVWTYSYLVLLFPVFLAIDYLR, 4.41.
As for IYPVWTYSYLVLLFPVFLAWDYLR, the figure is 1.93.
In the case of IYPVWTYSYLVLLFPVFLAPDYLR it was 3.55; in that of IYPVWTYSYLVLLFPVFLAYDYLR, 1.95; in that of IYPVWTYSYLVLLFPVFLASDYLR, 2.33.
Consider IYPVWTYSYLVLLFPCFLATDYLR, for which the protein stability index was determined as 2.79.
In the case of IYPVWTYSYLVLLFPKFLATDYLR it was 1.95; in that of IYPVWTYSYLVLLFPNFLATDYLR, 2.79; in that of IYPVWTYSYLVLLFPLFLATDYLR, 2.41.
In the case of IYPVWTYSYLVLLFPPFLATDYLR it was 2.42.
On to IYPVWTYSYLVLLFPFFLATDYLR, for which the protein stability index worked out at 3.04.
As for IYPVWTYSYLVLLFPMFLATDYLR, the figure is 2.55.
For the variant IYPVWTYSYLVLLFPIFLATDYLR, the protein stability index amounted to 3.52.
As for IYPVWTYSYLVLLFPEFLATDYLR, the figure is 1.72; as for IYPVWTYSYLVLLFPRFLATDYLR, 3.91; as for IYPVWTYSYLVLLFPSFLATDYLR, 3.4.
In the case of IYPVWTYSYLVLLFPYFLATDYLR it was 2.34; in that of IYPVWTYSYLVLLFPQFLATDYLR, 3.85.
As for IYPVWTYSYLVLLFPHFLATDYLR, the figure is 4.12; as for IYPVWTYSYLVLLFPTFLATDYLR, 2.15; as for IYPVWTYSYLVLLFPDFLATDYLR, 4.04.
With IYPVWTYSYLVLLFPAFLATDYLR, the protein stability index is 3.1.
